From US20200308295A1 (published 2020)

Target: T1, recombinant human C3d (human, UniProt P01024 996-1303, limits assumed)
T1 construct: domain: C3d; Also used for statements that speak only of C3d or human C3d; also called wild-type C3d
Experiment: radiolabelled antibody; method and antigen not stated

T1 sequence (P01024 996-1303 limits assumed): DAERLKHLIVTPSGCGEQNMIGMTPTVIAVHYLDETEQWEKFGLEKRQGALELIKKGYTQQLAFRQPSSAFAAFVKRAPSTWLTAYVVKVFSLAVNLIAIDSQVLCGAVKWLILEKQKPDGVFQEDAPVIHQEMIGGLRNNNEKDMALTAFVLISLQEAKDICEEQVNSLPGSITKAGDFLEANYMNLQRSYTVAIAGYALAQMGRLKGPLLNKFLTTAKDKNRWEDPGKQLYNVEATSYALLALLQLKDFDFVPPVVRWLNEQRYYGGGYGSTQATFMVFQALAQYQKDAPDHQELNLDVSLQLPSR

Kd: 0.43 nM
B1: mouse monoclonal antibody 3d29 (antibody, mouse IgG2a, V domains shown)
VH: EVQLQQSGPVLVKPGASVKMSCKASGYTFTDYYMNWVKQSHGKSLEWIGVINPYNGGTSYNQKFKGKATLTVDKSSRTAYMELNSLTSEDSAVYYCSRGGPYWGQGTTLTVSS
VL: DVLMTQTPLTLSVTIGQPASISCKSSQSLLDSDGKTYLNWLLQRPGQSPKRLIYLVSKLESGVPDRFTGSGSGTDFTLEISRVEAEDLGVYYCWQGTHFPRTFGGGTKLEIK
notes: Group I clone; Also used FITC-labelled, biotinylated, radiolabelled and conjugated to SPIO nanoparticles; told under assay; also called clone 29; C3d29
